Data as given in article PMC7615680, “In vitro construction of the COQ metabolon unveils the molecular determinants of coenzyme Q biosynthesis” (Nature catalysis, 2024).

Assays:
COc1cc(O)cc(CC=C(C)C)c1O = test: purified protein; details: 1 mM SAM, 150 uM NADH, 25 °C
[1] = biological target: T1, COQ3 (tetrapod ancestral) (Tetrapoda, UniProt Z9LPW8APZ1); test: microscale thermophoresis; assay type: binding
T1 construct: expressed in E. coli
T1 sequence (Z9LPW8APZ1 39-362): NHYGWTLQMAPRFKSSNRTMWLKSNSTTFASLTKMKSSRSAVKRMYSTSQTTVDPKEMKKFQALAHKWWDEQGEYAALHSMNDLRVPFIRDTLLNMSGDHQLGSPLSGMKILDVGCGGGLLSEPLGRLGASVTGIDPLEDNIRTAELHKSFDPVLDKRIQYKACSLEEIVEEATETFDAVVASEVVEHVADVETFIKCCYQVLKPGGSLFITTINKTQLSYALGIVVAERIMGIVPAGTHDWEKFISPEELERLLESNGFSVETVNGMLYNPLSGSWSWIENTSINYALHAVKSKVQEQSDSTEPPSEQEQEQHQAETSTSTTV

[2] = system: NC(=O)C1=CN([C@@H]2O[C@H](COP(=O)(O)OP(=O)(O)OC[C@H]3O[C@@H](n4cnc5c(N)ncnc54)[C@H](O)[C@@H]3O)[C@@H](O)[C@H]2O)C=CC1; test: purified protein; details: 700 uM non-prenylated 5ox, without COQ9, 0.05% DDM, pH 7.2, 25 °C
[3] = system: Nc1ncnc2c1ncn2[C@@H]1O[C@H](COP(=O)(O)OP(=O)(O)OP(=O)(O)O)[C@@H](O)[C@H]1O; test: ATPase activity (Malachite green phosphate); assay type: biochemical, Tetrapoda; details: basal ATPase; no COQ partner or intermediate
[4] = system: CC(C)=CCc1cc(C(=O)O)cc(O)c1O; test: purified protein; details: 2 mM SAM, no added Mg2+, pH 7.2, 25 °C

Question: Which Km (COc1cc(O)cc(CC=C(C)C)c1O) does the source give for COQ5 (tetrapod ancestral) (Tetrapoda) here?
Answer: Its Km is 444 µM.

Question: What about the kcat (COc1cc(O)cc(CC=C(C)C)c1O) of the same molecule?
Answer: The kcat was 2.4 min⁻¹.

Question: `CC(C)=CCc1cc(C(=O)O)cc(O)c1O` [compound 2, 3,4-dihydroxy-5-(3-methylbut-2-en-1-yl)benzoic acid] was tested. Which Kd [1] did it give?
Answer: The Kd was 6.5 µM.

Question: How did the Km [2] turn out when COQ7 (tetrapod ancestral) (Tetrapoda) was run?
Answer: The Km was 141.7 µM.

Question: And the kcat [2]?
Answer: Its kcat is 1.2 min⁻¹.

Question: What does the source list for COQ8B (tetrapod ancestral) (Tetrapoda)?
Answer: Km [3]: 26.6 µM; kcat [3]: 0.4 min⁻¹

Question: How did the Km [4] turn out when COQ3 (tetrapod ancestral) (Tetrapoda) was run?
Answer: Its Km is 887.9 µM.

Question: And the kcat [4]?
Answer: The kcat was 2.8 min⁻¹.
